Experimental findings from article PMC12226651 are described below.

In assay [1] the target is dynamic microtubules grown from purified bovine brain tubulin (bovine) (UniProt Q6B856). In words: optical trap rupture force assay; kinetochores purified without benzonase, held on beads by anti-penta-His antibody via Dsn1-6His-3M3DK, attached to the tip of dynamic microtubules grown from coverslip-anchored seeds; BRB80 growth buffer, 23 °C; force raised at 0.25 pN/s until detachment.

Assay [2] shares this target. In words: optical trap rupture force assay; kinetochores purified with benzonase, held on beads by anti-penta-His antibody via Dsn1-6His-3M3DK, attached to the tip of dynamic microtubules grown from coverslip-anchored seeds; BRB80 growth buffer, 23 °C; force raised at 0.25 pN/s until detachment.

Consider “S. cerevisiae kinetochores purified via Dsn1-6His-3M3DK (from UniProt P40568 1-576) (complex)”, for which, in assay [1], the median rupture force worked out at 7.2 pN.

For “K. marxianus kinetochores purified via Dsn1-6His-3M3DK (from UniProt A0ABX6F0Z3 1-547) (complex)”, the median rupture force in assay [2] stood at 6.4 pN; in assay [1], 7.5 pN.
